Target: T1, PNPase (Escherichia coli, UniProt P05055)
T1 construct: made in house; host or cells: E. coli Evo21(DE3)
T1 sequence (P05055 whole entry, looked up): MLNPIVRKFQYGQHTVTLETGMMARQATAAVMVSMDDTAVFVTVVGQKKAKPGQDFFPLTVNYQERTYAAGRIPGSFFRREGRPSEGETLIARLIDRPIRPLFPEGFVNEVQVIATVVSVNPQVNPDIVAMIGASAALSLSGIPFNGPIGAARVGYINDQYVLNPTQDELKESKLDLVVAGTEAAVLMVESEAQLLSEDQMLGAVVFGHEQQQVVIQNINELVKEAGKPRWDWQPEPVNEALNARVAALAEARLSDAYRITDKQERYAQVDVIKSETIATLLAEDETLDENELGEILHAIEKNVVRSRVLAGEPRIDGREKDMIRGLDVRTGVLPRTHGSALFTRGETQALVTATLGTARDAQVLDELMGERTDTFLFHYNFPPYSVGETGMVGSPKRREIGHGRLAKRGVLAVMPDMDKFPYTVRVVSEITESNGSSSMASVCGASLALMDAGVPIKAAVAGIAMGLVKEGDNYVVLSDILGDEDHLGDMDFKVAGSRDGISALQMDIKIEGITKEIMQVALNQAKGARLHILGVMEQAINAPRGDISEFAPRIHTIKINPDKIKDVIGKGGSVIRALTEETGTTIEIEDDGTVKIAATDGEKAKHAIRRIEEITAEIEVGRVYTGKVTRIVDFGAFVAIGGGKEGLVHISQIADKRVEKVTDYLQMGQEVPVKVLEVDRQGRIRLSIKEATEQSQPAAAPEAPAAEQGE
Assay type: binding, E. coli
Details: SPR, 25°C, immobilized PNPase C-His; HEPES pH 7.2; 0, 12.5, 25 and 50 nM (point mutants); contact 120 s, dissociation 120 s; duplicates

B1: RNase E 960 – 1061 wildtype: wildtype RNase E peptide 960–1061 (peptide)
chain: VVETAEVVVAEPEVVAQPAAPVVAEVAAEVETVAAVEPEVTVEHNHATAPMTRAPAPEYVPEAPRHSDWQRPTFAFEGKGAAGGHTATHHASAAPARPQPVE
modifications: left off: His6, N-terminal, cleaved | MBP, N-terminal, cleaved | intein, C-terminal, cleaved | choline-binding domain, C-terminal, cleaved
- Kd (dissociation rate constant, point mutants and wildtype): 0.026 s⁻¹
